Results on 10 molecules are retold here after patent US20240059789A1 (Janssen / Centocor, published 2024).

Where a chain is given by its changes, count along the chain named.

To fix the notation:
B1: PS3B930 (bispecific antibody, human IgG1, kappa, lambda, L234A L235A)
heavy 1: EVQLVESGGGLVKPGGSLRLSCAASGFTFSRYNMNWVRQAPGKGLEWVSSISTSSNYIYYADSVKGRFTFSRDNAKNSLDLQMSGLRAEDTAIYYCTRGWGPFDYWGQGTLVTVSSASTKGPSVFPLAPSSKSTSGGTAALGCLVKDYFPEPVTVSWNSGALTSGVHTFPAVLQSSGLYSLSSVVTVPSSSLGTQTYICNVNHKPSNTKVDKKVEPKSCDKTHTCPPCPAPEAAGGPSVFLFPPKPKDTLMISRTPEVTCVVVSVSHEDPEVKFNWYVDGVEVHNAKTKPREEQYNSTYRVVSVLTVLHQDWLNGKEYKCKVSNKALPAPIEKTISKAKGQPREPQVYTLPPSREEMTKNQVSLTCLVKGFYPSDIAVEWESNGQPENNYKTTPPVLDSDGSFLLYSKLTVDKSRWQQGNVFSCSVMHEALHNHYTQKSLSLSP
light 1: DIQMTQSPSSLSASVGDRVTITCRARQSIGTAIHWYQQKPGKAPKLLIKYASESISGVPSRFSGSGSGTDFTLTISSLQPEDFATYYCQQSGSWPYTFGQGTKLEIKRTVAAPSVFIFPPSDEQLKSGTASVVCLLNNFYPREAKVQWKVDNALQSGNSQESVTEQDSKDSTYSLSSTLTLSKADYEKHKVYACEVTHQGLSSPVTKSFNRGEC
heavy 2: EVQLVESGGGLVKPGGSLRLSCAASGFTFSRYNMNWVRQAPGKGLEWVSSINSNSRYIYYADSVKGRFTISRDSAKNSLYLQMNSLRAEDTAVYYCAKTMGDYYYYYGMDVWGQGTTVTVSSASTKGPSVFPLAPSSKSTSGGTAALGCLVKDYFPEPVTVSWNSGALTSGVHTFPAVLQSSGLYSLSSVVTVPSSSLGTQTYICNVNHKPSNTKVDKKVEPKSCDKTHTCPPCPAPEAAGGPSVFLFPPKPKDTLMISRTPEVTCVVVSVSHEDPEVKFNWYVDGVEVHNAKTKPREEQYNSTYRVVSVLTVLHQDWLNGKEYKCKVSNKALPAPIEKTISKAKGQPREPQVYTLPPSREEMTKNQVSLTCLVKGFYPSDIAVEWESNGQPENNYKTTPPVLDSDGSFFLYSRLTVDKSRWQQGNVFSCSVMHEALHNHYTQKSLSLSPG
light 2: QSVLTQPPSVSGAPGQRVTISCTGSSFNLGAGYDVHWYQQVPGTVPKLLIYDNSNRPSGVPDRFSGSKSGTSASLAITGLQAEDETVYYCQSYDSSLSGVVFGGGTKLTVLGQPKAAPSVTLFPPSSEELQANKATLVCLISDFYPGAVTVAWKADSSPVKAGVETTTPSKQSNNKYAASSYLSLTPEQWKSHRSYSCQVTHEGSTVEKTVAPTECS
B2: PS3B928 (bispecific antibody, human IgG1, kappa, lambda, L234A L235A)
heavy 1: B1 heavy 1
light 1: B1 light 1
heavy 2: not shown
light 2: not shown
B3: PS3B926 (bispecific antibody, human IgG1, kappa, lambda, L234A L235A)
heavy 1: B1 heavy 1
light 1: B1 light 1
heavy 2: not shown
light 2: not shown
B4: PS3B931 (bispecific antibody, human IgG1, kappa, lambda, L234A L235A)
heavy 1: B1 heavy 1
light 1: B1 light 1
heavy 2: B1 heavy 2
light 2: SSELTQPPSVSGAPGQRVTISCAGSLSNIGAGYDVHWYQQLPGTAPKLLIYGNINRLSGVPERFSGSKSGTSASLAITGLQAEDGADYYCQSYDSSLSSYVFGTGTKVTVLGQPKAAPSVTLFPPSSEELQANKATLVCLISDFYPGAVTVAWKADSSPVKAGVETTTPSKQSNNKYAASSYLSLTPEQWKSHRSYSCQVTHEGSTVEKTVAPTECS
B5: PS3B919 (bispecific antibody, human IgG1, lambda, L234A L235A)
heavy 1: QVQLQQSGPRLVRPSQTLSLTCAISGDSVFNNNAAWSWIRQSPSRGLEWLGRTYYRSKWLYDYAVSVKSRITVNPDTSRNQFTLQLNSVTPEDTALYYCARGYSSSFDYWGQGTLVTVSSASTKGPSVFPLAPSSKSTSGGTAALGCLVKDYFPEPVTVSWNSGALTSGVHTFPAVLQSSGLYSLSSVVTVPSSSLGTQTYICNVNHKPSNTKVDKKVEPKSCDKTHTCPPCPAPEAAGGPSVFLFPPKPKDTLMISRTPEVTCVVVSVSHEDPEVKFNWYVDGVEVHNAKTKPREEQYNSTYRVVSVLTVLHQDWLNGKEYKCKVSNKALPAPIEKTISKAKGQPREPQVYTLPPSREEMTKNQVSLTCLVKGFYPSDIAVEWESNGQPENNYKTTPPVLDSDGSFLLYSKLTVDKSRWQQGNVFSCSVMHEALHNHYTQKSLSLSPG
light 1: QSALTQPASVSGSPGQSITISCTGTSSNIGTYKFVSWYQQHPDKAPKVLLYEVSKRPSGVSSRFSGSKSGNTASLTISGLQAEDQADYHCVSYAGSGTLLFGGGTKLTVLGQPKAAPSVTLFPPSSEELQANKATLVCLISDFYPGAVTVAWKADSSPVKAGVETTTPSKQSNNKYAASSYLSLTPEQWKSHRSYSCQVTHEGSTVEKTVAPTECS
heavy 2: EVQLVESGGGLVQPGGSLRLSCAASGFTFSSYAMSWVRQAPGKGLEWVSAISGGIGSTYYADSVKGRFTISRDNSKNTLWLQMNSLRAEDTAVYYCAKDGVGATPYYFDYWGQGTLVTVSSASTKGPSVFPLAPSSKSTSGGTAALGCLVKDYFPEPVTVSWNSGALTSGVHTFPAVLQSSGLYSLSSVVTVPSSSLGTQTYICNVNHKPSNTKVDKKVEPKSCDKTHTCPPCPAPEAAGGPSVFLFPPKPKDTLMISRTPEVTCVVVSVSHEDPEVKFNWYVDGVEVHNAKTKPREEQYNSTYRVVSVLTVLHQDWLNGKEYKCKVSNKALPAPIEKTISKAKGQPREPQVYTLPPSREEMTKNQVSLTCLVKGFYPSDIAVEWESNGQPENNYKTTPPVLDSDGSFFLYSRLTVDKSRWQQGNVFSCSVMHEALHNHYTQKSLSLSPG
light 2: QSVLTQPPSVSAAPGQKVTISCSGSSSNIGNNYVSWYQQLPGTAPKLLIYDNNKRPSGIPDRFSGSKSGTSATLGITGLQTGDEADYYCGTWDSSLSAYVFGTGTKVTVLGQPKAAPSVTLFPPSSEELQANKATLVCLISDFYPGAVTVAWKADSSPVKAGVETTTPSKQSNNKYAASSYLSLTPEQWKSHRSYSCQVTHEGSTVEKTVAPTECS
B6: PS3B917 (bispecific antibody, human IgG1, lambda, L234A L235A)
heavy 1: B5 heavy 1
light 1: B5 light 1
heavy 2: B1 heavy 2
light 2: B1 light 2
B7: PS3B912 (bispecific antibody, human IgG1, lambda, L234A L235A)
heavy 1: B5 heavy 1
light 1: B5 light 1
heavy 2: B5 heavy 2 with A23T, T28I, I55Y, S57A, T58P, S63T, W80Y, Y110D, T115I
light 2: B5 light 2 with Y50F
B8: PS3B921 (bispecific antibody, human IgG1, lambda, L234A L235A)
heavy 1: B5 heavy 1
light 1: B5 light 1
heavy 2: B5 heavy 2
light 2: B5 light 2 with N31I, Y99V, T103G, V107L
B9: PS3B920 (bispecific antibody, human IgG1, lambda, L234A L235A)
heavy 1: B5 heavy 1
light 1: B5 light 1
heavy 2: B5 heavy 2 with I55S, W80Y, T91S
light 2: B5 light 2
B10: PS3B922 (bispecific antibody, human IgG1, lambda, L234A L235A)
heavy 1: B5 heavy 1
light 1: B5 light 1
heavy 2: B5 heavy 2 with I55S, W80Y, T91S
light 2: B5 light 2 with N31I, Y99V, T103G, V107L

The target in one assay is Human CD3 on T cells / Jurkat cells (human, UniProt P07766 23-207). Kind of assay: cell-based or functional assay.
Sequence of Human CD3 on T cells / Jurkat cells (P07766 23-207 limits assumed): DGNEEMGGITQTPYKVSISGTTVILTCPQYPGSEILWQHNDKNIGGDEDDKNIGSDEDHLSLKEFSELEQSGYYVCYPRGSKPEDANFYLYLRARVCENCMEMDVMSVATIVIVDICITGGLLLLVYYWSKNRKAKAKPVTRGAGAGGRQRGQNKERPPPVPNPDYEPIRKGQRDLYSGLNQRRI
As to B1, the “T cell activation EC50 [M] (CD25+ T cells, C4-2B co-culture, 72 h)” value (“T cell activation EC50 [M]” for short) came out at 2.4e-12 M. Consider B2, for which the “T cell activation EC50 [M]” value stood at 1.84e-10 M. Still for that read-out and setting: the result for B3 reads 3.45e-11 M; that for B4, 1e-08 M. As for B5, the “T cell activation EC50 [M]” value stood at 1.87e-10 M.

B6: the “T cell activation EC50 [M]” value was 4.48e-12 M.

For the molecule B7, the “T cell activation EC50 [M]” value came out at 4.73e-11 M. For the molecule B8, the “T cell activation EC50 [M]” value came out at 2.11e-11 M. For the molecule B9, the “T cell activation EC50 [M]” value amounted to 1.77e-09 M. As to B10, the “T cell activation EC50 [M]” value is 5.85e-11 M.

The target of a further assay is Human PSMA on prostate cancer cell lines (C4-2B, 22RV1) (human, UniProt Q04609 1-750). Kind of assay: cell-based or functional assay.
Sequence of Human PSMA on prostate cancer cell lines (C4-2B, 22RV1) (Q04609 whole entry): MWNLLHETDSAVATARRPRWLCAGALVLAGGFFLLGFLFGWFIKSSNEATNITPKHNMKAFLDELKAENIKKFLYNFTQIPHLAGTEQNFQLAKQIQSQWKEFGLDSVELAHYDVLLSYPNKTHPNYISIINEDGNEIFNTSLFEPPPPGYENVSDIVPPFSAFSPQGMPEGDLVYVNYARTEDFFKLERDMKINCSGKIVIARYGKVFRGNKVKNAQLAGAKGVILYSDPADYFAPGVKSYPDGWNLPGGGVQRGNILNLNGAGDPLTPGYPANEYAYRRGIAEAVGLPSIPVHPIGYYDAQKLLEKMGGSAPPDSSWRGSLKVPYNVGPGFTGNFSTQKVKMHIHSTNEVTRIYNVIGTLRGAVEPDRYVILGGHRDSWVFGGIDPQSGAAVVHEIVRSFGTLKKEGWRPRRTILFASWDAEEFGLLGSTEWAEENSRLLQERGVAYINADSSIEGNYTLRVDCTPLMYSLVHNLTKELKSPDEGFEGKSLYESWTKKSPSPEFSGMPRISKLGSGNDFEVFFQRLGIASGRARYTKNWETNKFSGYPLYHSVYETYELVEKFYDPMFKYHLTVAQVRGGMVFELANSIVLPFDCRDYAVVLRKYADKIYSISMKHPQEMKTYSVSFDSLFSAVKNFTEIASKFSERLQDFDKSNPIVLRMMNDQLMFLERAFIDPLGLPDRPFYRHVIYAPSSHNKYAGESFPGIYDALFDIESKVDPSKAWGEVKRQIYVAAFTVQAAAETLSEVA
For the molecule B2, the “Tumor killing EC50 [M] (C4-2B + PAN-T cells, 72 h, flow cytometry)” value (from here on “Tumor killing EC50 [M]”) was 4.81e-10 M.

For the molecule B3, the “Tumor killing EC50 [M]” value came out at 4.78e-11 M. Take B4: the “Tumor killing EC50 [M]” value was 1e-08 M. Regarding B5, the “Tumor killing EC50 [M]” value stood at 2.1e-10 M. As for B7, the “Tumor killing EC50 [M]” value was 6.51e-11 M. As to B8, the “Tumor killing EC50 [M]” value amounted to 3.11e-11 M. The same measure, in the same setting: the result for B9 reads 3.2e-09 M; that for B10, 7.79e-11 M.
